Measured values as given in the nanobody polyreactivity screen of Harvey et al. (2022).

assay: yeast display, Sf9 membrane polyspecificity reagent, FACS + sequencing; frameworks hold sequencing errors
Outline: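 Sorting gates, low and high (top ~1%), were placed on anti-HA fluorescence to track expression and on streptavidin fluorescence to track reagent binding. A clone's polyreactivity label is taken from the gate it came out of. The reagent was 10% biotinylated, detergent-solubilized Sf9 membrane, applied for 1 hour at 4 °C to galactose-induced yeast display cells.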

Sequence | polyreactivity (PSR sort gate)
QVQHVESVGGLVQAGGSLRLSCAASGFIFRRYVMGWNRQAPGKERELVAAISYGGGSTYYADSVKGRFTISRDNAKNTVYLQMNCLKPEDTAVYYCNAVSYNLAAYEYWGQGTQVTVSS | high polyreactivity
QVQLVESGGGLVQAGGSLRLSCAASGRIFQRYAMGWYRQAPGKERELVAVITKRGGNTYYADSVKGRFTISRDNAKNTVYLQMNSLKPEDTAVYYCANRSGRSTGDYWGQGTQVTVSS | high polyreactivity
QVQLVESGGGLVQAGGSLRLSCAASGSTFYKNAMGWNRQAPGKERELVASISRSGGSTSYADSVKGRFTISRDNAKNTVYLQMNSLKPEDTAVYYCAATWRQHPGSMGYWGQGTQVTVSS | high polyreactivity
QVQLVESGGGLVQAGGSLRLSCAASGRTSPGYAMGWYRQAPGKEREFVAGISRGGGSTYYADSVKGRFTISRDNAKNTVYLQMNSLKPEDTEVYYCNVRGPGFYWNWGQSHYYGYDYWGQGTQVTVSS | high polyreactivity
QVQLVESGGGLVQAGGSLRLSCAASGSIFGAYAMGWYRQAPGKERELVAAISGSGTSTYYADSVKGRFTISRDNAKNTVYLQMNSLKPEDTAVYYCATAKLTWRSQGLDYWGQGTQVTVSS | low polyreactivity
QVQLVESGGGLVQAGGSLRLSCAASGSTLVTNSMGWYRKAPGKERELVAAITFSGGTTYYADSVKGRFTISLDNAKNTVYLQMNSLKPEDTAVYYCAAEIWLEYVGYDYCGQGTQVTVSS | high polyreactivity
QVQLVESGGGLVQAGGSLRLSCAASGFIFIAYTMGWYRQAPGKERELVAAISSRGGRTYYADSVKGRFTISRDNAKNTVYLQMNSLKPEDTAVYYCAASYTYYSFGFGTDVRYGYWGQGTQVTVSS | high polyreactivity
QVQLVESGGGLVQAGGSLRLSCAPSGSTFPQYAMGWYRQAPGKERELVADISSGVSTNYADSVKGRFTISRDNAKNTVYLLMNSLKPEDTAVYYCAAQAYVEGVYRYDYWGQGTQVTVSS | low polyreactivity
QVQLVESGGGLVQAGGSLRLSCAASGRTFYSYAIGWYREAPGKERELVASISSGGGTNYADSVKGRFTISRDNAKNTVYLQMNSLKPDDTAVYYCAAKYWIFYPYDYWGQGTQVTVSS | low polyreactivity
QVQLVESGGGLVQAGGSLRLSCAASGSIFVFYAMGWYRQAPGKERELVAAINDGGSTHYADSVKGRFTISRDNAKNTVYLQMNSLKPEDTAVYYCAAEYVWYRYPDYWGAYDYWGQGTQVTVSS | low polyreactivity
QVQLVESGGGLVQAGGSLRLSCAASGYTFSDNAMGWSRQAPGKERDLVAAITSGVSKYFADSVKGRFTISRDNAKNTVYLQMNSLKPEDTADYYFAKDVAVYADLYQGAPYGYWGQGTQVTVSS | low polyreactivity
QVQLVESGGGLVQAGGSLRLSCAASGLTFAYYAMGWYRQAPGKERELVAAISWNGGRTYYADSVKGRFTISRDNAKNSVYLQMNSLKPEDSAVYYCAAQVTSSFYWGQGTQVTVSS | high polyreactivity
QVQLVESGGGLVQTGGSLRLSCAASGRIFRSYAMGWYRPAPGKERELVAAISGSGGSTYYADSVKGRFTISRDNAKNTVYVQMNSLKPEDTAVYYCNACKVHPFSTRFYYWGQGTQVTVSS | low polyreactivity
QVQLVESGGGLVQAGGSLRLRCAASGFTFRLYAMGGDRQAPGKERELVATITQRGGRTYYADSVKGRFTISRDNAKNTVYLQMNSLKPEDTAVYYCAATWSLTTGTKFDYWGQGTQVTVSS | high polyreactivity
QVQLVESGGGLVQAGGSLRLSCAASGRIYYQYAMGWYRQAPGKERELVAAITRGGNTYYADSVKGRFTISRDNAKNTVYLQMNSLKPEDTAVYYCNARWHTTGYRYDYWGQGTQVTVSS | high polyreactivity
QVQLVDSGGGLVQAGGSLRLSCAASGSIFRRNAMGWYRQAPGKERELVAAITRSGSGTSYADSVKGRFTISLDNAKNTVYLQMNSLKPEDTAVYYCNAAYVYGDQARGGYWGQGTQVTVSS | high polyreactivity
QVQLVESGGGLVQAGGSLRLSCAASGRIFPRYAMGWYRQAPGKERELFATISSGGSTYYADSVKGRFTISRDNAKNTVYLQMNSLKPEDTAVYYCAARKRPYTVINGMDYWGQGTQVTVSS | low polyreactivity
QVQLVESGGGLVQAGGSLRLSCAASGRTFLKYTLGWYRQAPGKERELVAAISGSGGSTYYADSVKGRFTISRDNAKNTVYLQMNSLKPEDTAVYYCAAAIVRHYQTGYYWGQGTQVTVSS | high polyreactivity
QVQLVESGGGLVQAGGSLRLSCAASGSIFAKYYARGWYRQAPVKERELVAAITSGGITNYADSVKGRFTISRDNAKNSVYLQMNSLKPEDTAVYYCAARKWLSAFDYWGQGTQVTVSS | low polyreactivity
QVQLVESGGGLVHAGGSLRLSCAASGFTSYENAMGWYRQAPGKEREFVAAISYIAGNTYYSDSVKGRFTISRDNAKNTVYLQMNSLKPEDTAVYYCAKTKYILPGNAYVNYDTTAYDYWGQGTQVTVSS | low polyreactivity
QVQLVESGGGLVQAGGSLRLSCAASGRIFGAYAMGWYRQAPGKERELVAAISSGGSTNYADSVKGRFTISRDNAKNTVYLQMNSLKPEDTAVYYCAAERLYSWYYYKYNSEFYYWGQGTQVTVSS | low polyreactivity
QVQLVESGGGLVQAGGSLRLSCAASGSTFPYPYTMGWYREAPGKERELVAVISRTGGSTFYADSVKRRFTISRDNAKNTVYLQMNSLKPEDTAVYYCAARRDGWTFWKYDYWGQGTQVTVSS | high polyreactivity

Sequence | polyreactivity (PSR sort gate)
QVQLVESGGGLVQAGGSLRLSCAASGRIFDDYGMGWYRQAQGKESELVAGISFIAGSTYYADSVKGRFTISRDNAKNTVYLQMNSLKPEDTAVYYCAVELWYEYYYWGQGTQVTVSS | high polyreactivity
QLQLVESGGGLVQAGGSLRLSCAASGSIFSRYAMGWYIQAPGKEMELVAGITRGGSTNYADSVKGRFTLSRDNAKNTVYLHMNSLKPEDTAVYYCAKASRRFLTLGYDYWGQGTQVTVSS | high polyreactivity
QVQLVESGGGLVQAGGSLRLSCAASGFTFRYYVMGWYRQSPGKERELVAAISWSGGSTYYADSVKGRFTISRDNAKNTVYLQMNSLKPEDTAVYYCNAASLSKSDYWGQGTQVTVSS | high polyreactivity
QVQLVESGGGLVQAGGSLRLSCAATGRIFHGYAMGWYRQAPGKERELVAAIDEDGGSTYYADSVKGRFTISRDNAKNTVYLQMNSLKPVDTAVYYCNADCSVRLDGFDYWGQGTQVTVSS | low polyreactivity
QVQLVESGGGLVQAGGRLLLSCAASGFTFYTYAMGWYRQAPGKERELVADISSGGSTNYADSVKGRFTISRDNAKNTVYLQMNSLKPEDTAVYYCSADYYFLDWYDYWGQGTQVTVSS | low polyreactivity
QVQLVESGGGLVQAGGSLSLSCAASGRTFSGNAMGWYRQAPGKERELVAAINWRGGRTYYADSVKGRFTISRDNAKNTVYLQMNSLKPEDTAVYYCAAVYVFHRYIYSLYDYWGQGTQVTVSS | high polyreactivity
QVQLVESGGGLVQAGGSLRLSCAASGSIFSWYAMGWYRQAPGKERELVAAIRRGGSTYYADSVKGRFTISRDNAKNTVYLQMNSLKPEDTAVYYCAARVYTAASRGRGDYWGQGTQVTVSS | low polyreactivity
QVQLVESGGGLVQAGGSLRLICAASGPTFTKANAMVWYRQAPGKERELVAAITDGGSTYADSVKGRFTNSRDNSKNTVYLQMNCLKPEDTAVYYCAKENEVFYDASYDYWGQGTQVTVSS | low polyreactivity
QVQLVESGGGLVQAGGSLRLSCAASGRIFTRYAMGWYRPSPGKERELVAAISRNGGGTYYAESVKGRFTISRDNAKNTVYLQMNSLKPEDTAVYYCNAESTFVWGSYVRYDYWGQGTQVTVSS | low polyreactivity
QVQLVESGGGLVQAGGSLRLSCAASGRIFRYNAMGWYRQAPGKERELVAAITKGGGSTYYADSVKGRFTISRDNAKNTVYLQMTSLNPEDTGVYYCAARRAVYRGNYWGQGTKVTVSS | high polyreactivity
QVQLVESGGGLVQAGGSLRLSCAASGITFYPYAMGWYRQAPGKERELVAAITLSTGTTYYADSVKGRFTISRDNAKNTVYLQMNSLKPEDTAVYYCAVEGYWYAGWYAMDYWGQGTQVTVSS | low polyreactivity
QVQLVESGGGLDQAGGSLRLSCAASGSIFSYYAMGWYRPAPGKERELVADNRWSGGSTYYADSVKGRFTISRDKAKNTVYLQMNSLKPEDTAVYYCNTLYLVYLYWTSPTPSDLFDYWGQGTQVTVSS | low polyreactivity
QVQLVESGGGLVQAGGSLRLSCAPSGRIFTRYARGWYRQAPGKERELVAVITRSGGSTYYADSVKGRFTISRDNAKNTVYLQMNSLKPEDTAVYYCAAKYYGEMYYWGQGTHVTVSS | low polyreactivity
QVQLVESGGGLVQAGGSLRLSCAASGNTFRRNVMGWYRQAPGKERELVAAINRGGSTTYADSVKGRFTISRDNAKNTVYLQMNSLKAEDTAVYYCNARTLFKWRHGHYYAYDYWGQGTQVTVSS | high polyreactivity
QVQLVESGGGLVQAGGSLRLSCAASGITIWWYAMGWYRQAPGKERELLAAITGGGSTNYADSVKGRFTISRDNAKNTVYLQMNSLKPEDTAVYYCAATGSPARNWDTVTGYYYWGQGTQVTVSS | low polyreactivity
QFQLVESGGGLVQAGASLRLSCAASGRIFEIYAMGWYRQAPGKDRELVAASSWRGVSTYYADSVKGRFTITRDNAKKTVYLQMNSLKPEDTAVYYCNKDVDYFWYVEYDYWGHGTQVTVSS | low polyreactivity
QVQLVESGGGLVQAGGSLRLSCAASGSISGYYAMGWYRQAPGKERELVASIRYTGARTYYADSVKGRFTISRDNAKNTVYLQMNSLKPEDTAVYYCAADFKRDRVWGGDYWGQGTQVTVSS | low polyreactivity
QVQLVESGGGLVQAGGSLRLSCAASGRIFIDYAMGWYRQAPGKERELVATISESGGSTYYADSVKARFTISRDNAKNTVYLQMNSLKPEDTAVYYCAAVGDNLATAEYDFWGQGTKVTVSS | low polyreactivity
QLQLVESGGGLVQAGGSLRLSCAASGGIFGYYTMGSYRQAPGKEREFVAAITSRGGSTYYADSVKGRFTISRDTAKNTVYLQMNSLKPEDTAVYYCAARRQRDRYGYWGQGTQVTVSS | high polyreactivity
QVQLVESGGGLVQAGGSLRLSCAASGSIFYPYAMGWYRQAPGKERELVAAITWSGGETYYADSVKGRFTISRDNAKNTVYLQMNSLKPEDTAVYYCAAEWNVSPYDYWGQGTQVTVSS | low polyreactivity
QVQLVESGGGLVQAGGSLRLSCAASGSISYANALGWYRQAPGKERELVAAISGSGGSTYYADSVKGRFTISRDNAKNTVYLQMNSLKPEDTAVYYCAARGFPPGDEWHPYDYWGQGTQVTVSS | low polyreactivity
